Reference: US20220220185A1 (CELL NETWORKS, published 2022)
Blank lines part the entries; values can stand above or below the binder they belong to.

Experiments:
[1] = target: T1, Sm-Gβ1 with untagged Gγ2 (human, UniProt P62873 2-340; P59768 2-68); test: NanoBiT split-luciferase complementation in HEK293 cells (NanoBiT-G13: Gα13-Lg, Sm-Gβ1, Gγ2; pairing from paragraph 252)
T1 construct: whole, on cells; also called Sm-Gβγ; SmBiT-fused Gβ1 subunit and native Gγ2 subunit
Method: (§1) To complement the inventive chimeric G-protein-based TGFα shedding assay, the inventors made an additional inventive assay in which dissociation of the Gα subunit from the Gβγ subunits, a critical process of G-protein activation, is measured via a luciferase complementation system. Bioluminescence Resonance Energy Transfer (BRET) between a Renilla luciferase-inserted Gα subunit and a GFP10-fused Gβ or Gγ subunit was previously developed to measure Gα-Gβγ dissociation (Gales et al., 2005). Here, they replaced the BRET pair with a split luciferase (NanoLuc Binary Technology; NanoBiT) (Dixon et al., 2016). […] They generated a series of Gα-Lg, Sm-Gβ and Sm-Gγ subunits and optimized a combination.
(§2) Plasmid transfection was performed in a 6-well plate with a mixture of 100 ng Gα-Lg-encoding plasmid, 500 ng Sm-Gβ-encoding plasmid, 500 ng untagged Gγ₂-encoding plasmid, 200 ng GPCR-encoding plasmid with or without 100 ng RIC8-encoding plasmid (per well, hereafter).

[2] = target: T1, Sm-Gβ1 with untagged Gγ2; test: NanoBiT split-luciferase complementation in HEK293 cells (NanoBiT-G12: Gα12-Lg, Sm-Gβ1, Gγ2; pairing from paragraph 252)
Method: as §1, §2

[3] = target: T1, Sm-Gβ1 with untagged Gγ2; test: NanoBiT split-luciferase complementation in HEK293 cells (NanoBiT-Gq: Gαq-Lg, Sm-Gβ1, Gγ2; pairing from paragraph 252)
Method: as §1, §2

[4] = target: T1, Sm-Gβ1 with untagged Gγ2; test: NanoBiT split-luciferase complementation in HEK293 cells (NanoBiT-Gs: Gαs-Lg, Sm-Gβ1, Gγ2; pairing from paragraph 252)
Method: as §1, §2

T1 sequence (P62873 other isoform, or with tags, fused parts or gaps, chain 1 of 2): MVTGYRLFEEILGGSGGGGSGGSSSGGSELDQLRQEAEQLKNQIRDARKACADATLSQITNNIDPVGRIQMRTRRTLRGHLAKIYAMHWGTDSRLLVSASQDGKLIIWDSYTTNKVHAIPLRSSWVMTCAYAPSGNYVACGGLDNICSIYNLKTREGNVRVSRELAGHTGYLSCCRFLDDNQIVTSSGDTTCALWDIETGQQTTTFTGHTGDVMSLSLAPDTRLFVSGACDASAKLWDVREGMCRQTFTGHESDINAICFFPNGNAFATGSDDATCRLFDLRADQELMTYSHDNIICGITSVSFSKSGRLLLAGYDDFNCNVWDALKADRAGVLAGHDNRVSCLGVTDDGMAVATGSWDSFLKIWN
T1 sequence (P59768 2-68, chain 2 of 2): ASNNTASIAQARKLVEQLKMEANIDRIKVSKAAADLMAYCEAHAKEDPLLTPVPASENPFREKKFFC

binding result [1]: binds
B1: Gα13-Lg (other, human, UniProt Q14344 1-377, looked up)
chain: MADFLPSRSVLSVCFPGCLLTSGEAEQQRKSKEIDKCLSREKTYVKRLVKILLLGAGESGKSTFLKQMRIIHGQDFDQRAREEFRPTIYSNVIKGMRVLVDAREKLHIPWGDNSNQQHGDKMMSFDTRAPMAAQGMVETRVFLQYLPAIRALWADSGIQNAYDRRREFQLGESVKYFLDNLDKLGEPDYIPSQQDILLARRPTKGIHEYDFEIKNVPFKMVDVGGQRSERKRWFECFDSVTSILFLVSSSEFDQVLMEDRLTNRLTESLNIFETIVNNRVFSNVSIILFLNKTDLLEEKVQIVSIKDYFLEFEGDPHCLRDVQKFLVECFRNKRRDQQQKPLYHHFTTAINTENIRLVFRDVKDTILHDNLKQLMLQ
notes: whole, on cells; the LgBiT insert is not placed; also called NanoBiT-G13 (Gα subunit); G13

binding result [2]: binds
B2: Gα12-Lg (other, human, UniProt Q03113 1-381, looked up)
chain: MSGVVRTLSRCLLPAEAGGARERRAGSGARDAEREARRRSRDIDALLARERRAVRRLVKILLLGAGESGKSTFLKQMRIIHGREFDQKALLEFRDTIFDNILKGSRVLVDARDKLGIPWQYSENEKHGMFLMAFENKAGLPVEPATFQLYVPALSALWRDSGIREAFSRRSEFQLGESVKYFLDNLDRIGQLNYFPSKQDILLARKATKGIVEHDFVIKKIPFKMVDVGGQRSQRQKWFQCFDGITSILFMVSSSEYDQVLMEDRRTNRLVESMNIFETIVNNKLFFNVSIILFLNKMDLLVEKVKTVSIKKHFPDFRGDPHRLEDVQRYLVQCFDRKRRNRSKPLFHHFTTAIDTENVRFVFHAVKDTILQENLKDIMLQ
notes: whole, on cells; the LgBiT insert is not placed; also called NanoBiT-G12 (Gα subunit); G12

binding result [3]: binds
B3: Gαq-Lg (other, human, UniProt P50148 1-359, looked up)
chain: MTLESIMACCLSEEAKEARRINDEIERQLRRDKRDARRELKLLLLGTGESGKSTFIKQMRIIHGSGYSDEDKRGFTKLVYQNIFTAMQAMIRAMDTLKIPYKYEHNKAHAQLVREVDVEKVSAFENPYVDAIKSLWNDPGIQECYDRRREYQLSDSTKYYLNDLDRVADPAYLPTQQDVLRVRVPTTGIIEYPFDLQSVIFRMVDVGGQRSERRKWIHCFENVTSIMFLVALSEYDQVLVESDNENRMEESKALFRTIITYPWFQNSSVILFLNKKDLLEEKIMYSHLVDYFPEYDGPQRDAQAAREFILKMFVDLNPDSDKIIYSHFTCATDTENIRFVFAAVKDTILQLNLKEYNLV
notes: whole, on cells; the LgBiT insert is not placed; also called NanoBiT-Gq (Gα subunit); Gq

binding result [4]: binds
B4: Gαs-Lg (other, human, UniProt P63092 2-394, looked up)
chain: GCLGNSKTEDQRNEEKAQREANKKIEKQLQKDKQVYRATHRLLLLGAGESGKSTIVKQMRILHVNGFNGEGGEEDPQAARSNSDGEKATKVQDIKNNLKEAIETIVAAMSNLVPPVELANPENQFRVDYILSVMNVPDFDFPPEFYEHAKALWEDEGVRACYERSNEYQLIDCAQYFLDKIDVIKQADYVPSDQDLLRCRVLTSGIFETKFQVDKVNFHMFDVGGQRDERRKWIQCFNDVTAIIFVVASSSYNMVIREDNQTNRLQEALNLFKSIWNNRWLRTISVILFLNKQDLLAEKVLAGKSKIEDYFPEFARYTTPEDATPEPGEDPRVTRAKYFIRDEFLRISTASGDGRHYCYPHFTCAVDTENIRRVFNDCRDIIQRMHLRQYELL
notes: whole, on cells; the LgBiT insert is not placed; also called NanoBiT-Gs (Gα subunit); Gs
